Test results from patent publication US20150203577A1 (Chugai, published 2015).
Where a chain is given by its changes, count along the chain named.

B1: H237-MB866/MRAL-k0 (antibody, mouse IgG1, kappa)
heavy: QVQLQESGPGLVKPSETLSLTCAVSGHSISHDHAWSWVRQPPGEGLEWIGFISYSGITNYNPSLQGRVTISRDNSKNTLYLQMNSLRAEDTAVYYCARSLARTTAMDYWGEGTLVTVSSAKTTPPSVYPLAPGSAAQTNSMVTLGCLVKGYFPEPVTVTWNSGSLSSGVHTFPAVLQSDLYTLSSSVTVPSSTWPSETVTCNVAHPASSTKVDKKIVPRDCGCKPCICEPNEVEIVFIFPPKPKDVLTITLTPKVTCVVVDISKDDPEVQFSWFVDDVEVHTAQTQPREEQFNSTFRSVSELPIMHQDWLNGKEFKCRVNSDGFPAPIEKTISKTKGRPKAPQVYTIPPPKEQMAKDKVSLTCMITDFFPEDITVEWQWNGQPAENYKNTQPIMDTDGSYFVYSKLNVQKSNWEAGNTFTCSVLHEGLHNHHTEKSLSHSPGK
light: not shown
notes: copies: 2 + 2
B2: H237-MB867/MRAL-k0 (antibody, mouse IgG1, kappa)
heavy: B1 heavy with K264D
light: not shown
notes: copies: 2 + 2
B3: H237-MB868/MRAL-k0 (antibody, mouse IgG1, kappa)
heavy: B1 heavy with K264D, N320D
light: not shown
notes: copies: 2 + 2
B4: H237-MB869/MRAL-k0 (antibody, mouse IgG1, kappa)
heavy: B1 heavy with K264D, E329Y
light: not shown
notes: copies: 2 + 2
B5: H237-MB870/MRAL-k0 (antibody, mouse IgG1, kappa)
heavy: B1 heavy with K264D, K330R
light: not shown
notes: copies: 2 + 2
B6: H237-MB871/MRAL-k0 (antibody, mouse IgG1, kappa)
heavy: B1 heavy with K264D, Q291L
light: not shown
notes: copies: 2 + 2
B7: H237-MB875/MRAL-k0 (antibody, mouse IgG1, kappa)
heavy: B1 heavy with K264D, Q291L, N320D
light: not shown
notes: copies: 2 + 2
B8: H237-MB876/MRAL-k0 (antibody, mouse IgG1, kappa)
heavy: B1 heavy with K264D, Q291L, E329Y
light: not shown
notes: copies: 2 + 2
B9: H237-MB877/MRAL-k0 (antibody, mouse IgG1, kappa)
heavy: B1 heavy with K264D, N320D, K330R
light: not shown
notes: copies: 2 + 2
B10: H237-MB706/MRAL-k0 (antibody, mouse IgG1, kappa)
heavy: B1 heavy with N231A, I235V, D322A, G323A
light: not shown
notes: copies: 2 + 2
B11: H237-MB707/MRAL-k0 (antibody, mouse IgG1, kappa)
heavy: B1 heavy with N231A, D322A, G323A
light: not shown
notes: copies: 2 + 2
B12: H237-MB711/MRAL-k0 (antibody, mouse IgG1, kappa)
heavy: B1 heavy with N231A, I235R, D322A, G323A
light: not shown
notes: copies: 2 + 2
B13: H237-MB712/MRAL-k0 (antibody, mouse IgG1, kappa)
heavy: B1 heavy with N231A, I235H, D322A, G323A
light: not shown
notes: copies: 2 + 2
B14: H237-MB720/MRAL-k0 (antibody, mouse IgG1, kappa)
heavy: B1 heavy with I235R, D322A, G323A
light: not shown
notes: copies: 2 + 2
B15: H237-MB721/MRAL-k0 (antibody, mouse IgG1, kappa)
heavy: B1 heavy with I235H, D322A, G323A
light: not shown
notes: copies: 2 + 2
B16: H237-MB792/MRAL-k0 (antibody, mouse IgG1, kappa)
heavy: B1 heavy with E229Q, I235V, D322A, G323A
light: not shown
notes: copies: 2 + 2
B17: H237-MB878/MRAL-k0 (antibody, mouse IgG1, kappa)
heavy: B1 heavy with E229T, N231A, V233E, I235L, D322A, G323A
light: not shown
notes: copies: 2 + 2
B18: H237-MB883/MRAL-k0 (antibody, mouse IgG1, kappa)
heavy: B1 heavy with N231A, V233E, E234S, I235L, D322A, G323A
light: not shown
notes: copies: 2 + 2
B19: H237-MB884/MRAL-k0 (antibody, mouse IgG1, kappa)
heavy: B1 heavy with V233E, E234S, I235L, D322A, G323A
light: not shown
notes: copies: 2 + 2
B20: H237-MB885/MRAL-k0 (antibody, mouse IgG1, kappa)
heavy: B1 heavy with N231A, V233E, I235S, D322A, G323A
light: not shown
notes: copies: 2 + 2
B21: H237-MB886/MRAL-k0 (antibody, mouse IgG1, kappa)
heavy: B1 heavy with V233E, I235S, D322A, G323A
light: not shown
notes: copies: 2 + 2

These binders were tested against T1, mouse FcγRII extracellular domain, C-terminal His tag (mouse, UniProt P08101 30-210) (assay: SPR (Biacore T200); KD of H237-MB716/MRAL-k0 / KD of variant).
T1 construct: Whole entry named; also called mFcγRII; mFcgRII
T1 sequence: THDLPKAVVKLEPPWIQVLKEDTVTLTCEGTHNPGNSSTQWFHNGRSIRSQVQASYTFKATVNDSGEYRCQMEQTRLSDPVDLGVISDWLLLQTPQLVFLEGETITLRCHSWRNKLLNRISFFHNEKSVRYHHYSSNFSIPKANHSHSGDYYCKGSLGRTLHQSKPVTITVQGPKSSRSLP
Source text: (§1) The antibody H chain variable region used was the variable region H237 (SEQ ID NO: 1) of the H chain VH3-IgG1 of the anti-IL-6 receptor antibody Fv4-IgG1 described in WO2009/125825. The antibody L chain commonly used was the L chain MRAL-k0 (SEQ ID NO: 2) of the anti-IL-6 receptor antibody tocilizumab. H237-MB716/MRAL-k0 was used as a template to introduce the alterations. These variants were expressed and purified by the method of Reference Example 1 and evaluated for their binding to mFcγRII and mFcγRIII by the method of Reference Example 2 using Biacore T200.
(§2) Each altered antibody was analyzed for its interaction with each Fcγ receptor prepared above using Biacore T100 (GE Healthcare Japan Corp.), Biacore T200 (GE Healthcare Japan Corp.), Biacore A100, or Biacore 4000. The running buffer used was HBS-EP+ (GE Healthcare Japan Corp.). The assay temperature was set to 25° C. The sensor chips used were chips prepared by immobilizing Protein L (ACTIGEN or BioVision) onto Series S Sensor Chip CM5 (GE Healthcare Japan Corp.) or Series S Sensor Chip CM4 (GE Healthcare Japan Corp.) by the amine coupling method.

Binder | relative mFcγRII-binding activity (MB716 = 1) [fold]
B1 | 3
B2 | 8.1
B3 | 8.4
B4 | 9.4
B5 | 8.9
B6 | 14.2
B7 | 16.8
B8 | 13.5
B9 | 12.7

Biological target: T2, mouse FcγRIII extracellular domain, C-terminal His tag (mouse, UniProt P08508 31-215)
T2 construct: Whole entry named; also called mFcγRIII; mFcgRIII
T2 chain: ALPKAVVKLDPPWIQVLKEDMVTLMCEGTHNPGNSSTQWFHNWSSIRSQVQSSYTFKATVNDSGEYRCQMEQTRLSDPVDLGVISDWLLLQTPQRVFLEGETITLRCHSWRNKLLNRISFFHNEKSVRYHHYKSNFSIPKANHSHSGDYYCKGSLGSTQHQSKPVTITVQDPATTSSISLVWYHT
Test: as above
Source text: as §1, §2

Binder | relative mFcγRIII-binding activity (MB716 = 1) [fold]
B1 | 3.02
B2 | 14.3
B3 | 14.4
B4 | 15.8
B5 | 17.6
B6 | 28.2
B7 | 32.3
B8 | 24.9
B9 | 24.4

Each binder was assayed against T3, mouse FcγRII extracellular domain, C-terminally His-tagged (mouse, UniProt P08101 30-210) (assay: SPR Biacore T200, KD ratio).
T3 construct: the whole entry is named; also called mFcγRII; mFcgRII
T3 sequence: T1 sequence

Binder | relative mFcγRII-binding activity (mIgG1 = 1) [fold]
B10 | 0.23
B11 | 0.37
B12 | 0.05
B13 | 0.16
B14 | 0.08
B15 | 0.3
B16 | 0.31

These binders were tested against T1, mouse FcγRII extracellular domain, … (assay: SPR (Biacore T200); KD of H237-mIgG1/MRAL-k0 / KD of variant).
Protocol: as §2
(§3) In order to calculate the KD value of each altered antibody for FcγR, kinetic analysis was conducted according to the following method: first, the antibody of interest was captured onto any of these chips and allowed to interact with mFcγR diluted with a running buffer. For the obtained sensorgram, the assay results were globally fit into the 1:1 Langmuir binding model using Biacore Evaluation Software to calculate an association rate constant ka (L/mol/s) and a dissociation rate constant kd (1/s). From these values, the dissociation constant KD (mol/L) was calculated.

Binder | relative mFcγRII-binding activity (mIgG1 = 1) [fold]
B17 | 0.47
B18 | 2.21
B19 | 2.46
B20 | 3.29
B21 | 1.47

Biological target: T2, mouse FcγRIII extracellular domain, …
Test: as above
Protocol: as §2, §3

Binder | relative mFcγRIII-binding activity (mIgG1 = 1) [fold]
B17 | 0.03
B18 | 0.11
B19 | 0.09
B20 | 0.13
B21 | 0.08

Biological target: T1, mouse FcγRII extracellular domain, …
Test: as above
Remark: another data set of the same source
Source text: as §1, §2

Binder | relative mFcγRII-binding activity (mIgG1 = 1) [fold]
B1 | 13
B2 | 35.2
B3 | 36.6
B4 | 41
B5 | 38.6
B6 | 61.8
B7 | 72.8
B8 | 58.7
B9 | 55.3

Biological target: T2, mouse FcγRIII extracellular domain, …
Test: as above
Remark: another data set of the same source
Source text: as §1, §2

Binder | relative mFcγRIII-binding activity (mIgG1 = 1) [fold]
B1 | 0.18
B2 | 0.85
B3 | 0.86
B4 | 0.94
B5 | 1.05
B6 | 1.67
B7 | 1.92
B8 | 1.48
B9 | 1.45

Biological target: T4, mouse FcγRIII extracellular domain, C-terminally His-tagged (mouse, UniProt P08508 31-215)
T4 construct: the whole entry is named; also called mFcγRIII; mFcgRIII
T4 chain: T2 chain
Test: SPR Biacore T200

Binder | binding result
B10 | no binding
B11 | no binding
B12 | no binding
B13 | no binding
B14 | no binding
B15 | no binding
B16 | no binding
